Experimental data from US20260125711, “RNA-GUIDED NUCLEASES AND ACTIVE FRAGMENTS AND VARIANTS THEREOF AND METHODS OF USE” (Life Edit Therapeutics, Inc., published 2026).
Positions count from the first letter of the chain named. Names and notes keep the numbering of the source.

Columns and labels:
Conditions in all cases: tags: N-terminal SV40 NLS and 3xFLAG; C-terminal nucleoplasmin NLS
LPG10208 = molecular target: T1, LPG10208; experiment: cell_activity; PAM SEQ ID NOs 146, 147; HEK293T
T1 chain: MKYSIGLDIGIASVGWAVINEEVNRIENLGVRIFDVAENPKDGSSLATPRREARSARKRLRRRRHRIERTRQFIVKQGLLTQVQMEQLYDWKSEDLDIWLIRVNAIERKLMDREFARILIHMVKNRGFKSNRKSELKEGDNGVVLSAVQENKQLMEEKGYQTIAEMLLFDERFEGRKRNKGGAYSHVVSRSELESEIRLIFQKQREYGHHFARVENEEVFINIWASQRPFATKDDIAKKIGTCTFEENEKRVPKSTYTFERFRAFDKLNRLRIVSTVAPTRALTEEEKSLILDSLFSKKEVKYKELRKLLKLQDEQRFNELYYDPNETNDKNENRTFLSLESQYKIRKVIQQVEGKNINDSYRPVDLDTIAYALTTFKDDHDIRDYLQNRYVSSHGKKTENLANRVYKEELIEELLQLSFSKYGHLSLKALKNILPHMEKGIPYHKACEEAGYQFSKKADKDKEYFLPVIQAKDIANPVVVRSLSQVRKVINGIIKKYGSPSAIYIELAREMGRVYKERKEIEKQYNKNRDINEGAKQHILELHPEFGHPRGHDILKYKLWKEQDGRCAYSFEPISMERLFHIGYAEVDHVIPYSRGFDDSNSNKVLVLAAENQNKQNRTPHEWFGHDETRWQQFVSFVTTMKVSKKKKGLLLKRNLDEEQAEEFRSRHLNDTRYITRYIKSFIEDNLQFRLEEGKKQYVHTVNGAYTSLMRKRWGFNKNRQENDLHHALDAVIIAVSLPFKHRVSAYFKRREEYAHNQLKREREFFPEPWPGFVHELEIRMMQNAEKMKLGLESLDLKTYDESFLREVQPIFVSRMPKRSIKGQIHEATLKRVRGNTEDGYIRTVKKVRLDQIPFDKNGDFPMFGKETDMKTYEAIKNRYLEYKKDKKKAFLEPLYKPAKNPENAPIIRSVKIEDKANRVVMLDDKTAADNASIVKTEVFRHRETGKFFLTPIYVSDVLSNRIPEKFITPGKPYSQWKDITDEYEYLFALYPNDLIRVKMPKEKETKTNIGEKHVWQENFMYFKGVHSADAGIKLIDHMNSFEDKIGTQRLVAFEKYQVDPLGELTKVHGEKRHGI
Description: (§1) Guide RNAs targeting several genes were designed for robustness testing of multiple RGNs in HEK293T cells by plasmid delivery. These guides were tested under optimal editing conditions for HEK293T cells in a 96-well plate which involved seeding 10,000-15,000 cells on day 1, lipofection using Lipofectamine 3000 on day 2, and genomic DNA extraction on day 4. […] Then, 0.3 μl of Lipofectamine 3000 diluted in Opti-MEM was added to the plasmid mixture and incubated for 15 mins before adding to cells.

LPG10204 = molecular target: T2, LPG10204; experiment: cell_activity; PAM SEQ ID NOs 146, 147; HEK293T
T2 chain: T1 chain with E450Q, L467S
Description: as §1

LPG10168 = molecular target: T3, LPG10168 (Bacillus toyonensis); experiment: cell_activity; PAM nnnnCC; HEK293T
T3 chain: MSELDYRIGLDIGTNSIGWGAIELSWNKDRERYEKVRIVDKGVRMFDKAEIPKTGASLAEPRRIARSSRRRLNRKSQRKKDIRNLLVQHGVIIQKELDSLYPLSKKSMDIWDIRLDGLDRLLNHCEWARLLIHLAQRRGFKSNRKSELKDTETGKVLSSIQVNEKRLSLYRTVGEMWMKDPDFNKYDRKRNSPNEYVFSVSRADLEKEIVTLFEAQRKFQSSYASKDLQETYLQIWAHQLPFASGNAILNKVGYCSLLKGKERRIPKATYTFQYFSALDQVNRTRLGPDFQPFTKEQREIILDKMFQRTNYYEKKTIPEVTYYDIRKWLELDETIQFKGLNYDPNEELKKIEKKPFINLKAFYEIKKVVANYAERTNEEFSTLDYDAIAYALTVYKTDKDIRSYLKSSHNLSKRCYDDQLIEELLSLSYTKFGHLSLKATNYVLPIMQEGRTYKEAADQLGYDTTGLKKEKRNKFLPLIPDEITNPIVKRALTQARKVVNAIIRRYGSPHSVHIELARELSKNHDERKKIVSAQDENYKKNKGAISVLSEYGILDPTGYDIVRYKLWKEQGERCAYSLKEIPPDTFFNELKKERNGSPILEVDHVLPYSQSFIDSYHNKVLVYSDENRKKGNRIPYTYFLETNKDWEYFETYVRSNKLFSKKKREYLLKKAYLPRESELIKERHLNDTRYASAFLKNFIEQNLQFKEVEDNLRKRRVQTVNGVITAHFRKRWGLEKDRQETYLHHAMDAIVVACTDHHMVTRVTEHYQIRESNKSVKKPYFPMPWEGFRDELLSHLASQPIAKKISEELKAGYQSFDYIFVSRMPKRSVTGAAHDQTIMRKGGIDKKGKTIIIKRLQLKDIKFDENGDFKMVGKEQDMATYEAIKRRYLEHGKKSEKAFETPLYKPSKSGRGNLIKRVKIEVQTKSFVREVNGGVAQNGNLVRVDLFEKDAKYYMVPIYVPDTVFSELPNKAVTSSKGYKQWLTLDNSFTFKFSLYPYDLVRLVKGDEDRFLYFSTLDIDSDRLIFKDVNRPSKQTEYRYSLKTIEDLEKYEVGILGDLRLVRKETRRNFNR
Description: (§2) Several of the constructs described above were introduced into mammalian cells. One day prior to transfection, 1×10⁵ HEK293T cells (Sigma) were plated in 24-well dishes in Dulbecco's modified Eagle medium (DMEM) plus 10% (vol/vol) fetal bovine serum (Gibco) and 1% Penicillin-Streptomycin (Gibco). The next day when the cells were at 50-60% confluency, 500 ng of an RGN expression plasmid plus 500 ng of a single gRNA expression plasmid were co-transfected using 1.5 μL of Lipofectamine 3000 (Thermo Scientific) per well, following the manufacturer's instructions. After 48 hours of growth, total genomic DNA was harvested using a genomic DNA isolation kit (Machery-Nagel) according to the manufacturer's instructions.
(§3) Additionally, products from PCR #2 containing Illumina overhang sequences underwent library preparation following the Illumina 16S Metagenomic Sequencing Library protocol. Deep sequencing was performed on an Illumina Mi-Seq platform by a service provider (MOGene). Typically, 200,000 of 250 bp paired-end reads (2×100,000 reads) are generated per amplicon. […] Output alignments were hand-curated to confirm insertion and deletion sites as well as identify microhomology sites at the recombination sites. All experiments were performed in human cells.

LPG10167 = molecular target: T4, LPG10167 (Bacillus toyonensis); experiment: cell_activity; PAM nnnnCC; HEK293T
T4 chain: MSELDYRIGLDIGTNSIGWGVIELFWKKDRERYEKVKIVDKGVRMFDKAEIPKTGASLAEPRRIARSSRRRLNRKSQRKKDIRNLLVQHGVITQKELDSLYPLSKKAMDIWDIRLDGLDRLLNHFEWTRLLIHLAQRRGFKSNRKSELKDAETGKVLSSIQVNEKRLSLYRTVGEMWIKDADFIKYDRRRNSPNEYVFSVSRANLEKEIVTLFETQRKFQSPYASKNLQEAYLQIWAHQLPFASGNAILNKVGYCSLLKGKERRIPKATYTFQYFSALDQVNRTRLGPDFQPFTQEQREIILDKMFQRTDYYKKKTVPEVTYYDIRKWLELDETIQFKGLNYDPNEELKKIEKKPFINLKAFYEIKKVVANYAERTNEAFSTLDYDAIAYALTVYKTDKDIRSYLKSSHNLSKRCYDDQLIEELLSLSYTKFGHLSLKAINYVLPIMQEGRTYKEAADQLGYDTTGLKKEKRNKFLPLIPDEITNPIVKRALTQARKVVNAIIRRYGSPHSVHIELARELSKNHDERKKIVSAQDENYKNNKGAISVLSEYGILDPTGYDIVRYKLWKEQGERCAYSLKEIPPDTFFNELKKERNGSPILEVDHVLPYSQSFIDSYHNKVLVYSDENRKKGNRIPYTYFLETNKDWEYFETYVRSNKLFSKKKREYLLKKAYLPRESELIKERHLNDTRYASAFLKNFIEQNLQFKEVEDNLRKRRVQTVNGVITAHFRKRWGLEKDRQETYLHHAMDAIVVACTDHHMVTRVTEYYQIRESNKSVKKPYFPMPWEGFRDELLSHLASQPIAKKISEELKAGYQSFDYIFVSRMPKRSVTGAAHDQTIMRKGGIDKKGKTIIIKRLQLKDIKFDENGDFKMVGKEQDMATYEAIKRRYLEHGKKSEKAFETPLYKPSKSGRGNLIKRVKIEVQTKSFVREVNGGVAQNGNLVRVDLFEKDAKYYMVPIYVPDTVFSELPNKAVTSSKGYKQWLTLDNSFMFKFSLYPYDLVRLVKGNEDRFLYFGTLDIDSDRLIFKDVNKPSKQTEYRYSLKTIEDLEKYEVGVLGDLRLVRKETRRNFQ
Description: as §2, §3

B1: SGN005373 ; SGN005373 target (LPG10208) (ssRNA ; dsDNA)
RNA: UAGCCUCCAGGCCAGAAAGAGAGAGGCCAUAAUUCCUCCAAAGGGAGUUAUUAUGGUAAGGCAUUAUGCCGUGGCGUUGGGGAUCGCCUACAUCCGAUUAGAUCGGAUUCUCCCUAAAAAUGACUAACUUUGUUUAGUCAUUUUUUU
DNA 1: TAGCCTCCAGGCCAGAAAGAGAGAG
DNA 2: CTCTCTCTTTCTGGCCTGGAGGCTA
LPG10208
  activity: 37.5 % indels

B2: SGN005382 ; SGN005382 target (ssRNA ; dsDNA)
RNA: CUCUCUUUCUGGCCUGGAGGCUAUCGCCAUAAUUCCUCCAAAGGGAGUUAUUAUGGUAAGGCAUUAUGCCGUGGCGUUGGGGAUCGCCUACAUCCGAUUAGAUCGGAUUCUCCCUAAAAAUGACUAACUUUGUUUAGUCAUUUUUUU
DNA 1: CTCTCTTTCTGGCCTGGAGGCTATC
DNA 2: GATAGCCTCCAGGCCAGAAAGAGAG
LPG10204
  activity: 25.5 % indels

B3: SGN003668 ; B2M target SGN003668 (ssRNA ; dsDNA)
RNA: GGAGAGACUCACGCUGGAUAGCCUCGUCAUAGUUCCAUUAAAGCCAUUAAAGAAUGGCUUUGAUGUUUCUAUGAUAAGGGUUUCGGCCCGUGGCGUUGGGGAUCGCCUGCCCAUUUCAAUGGGCUUCUCCCCAUUU
DNA 1: GGAGAGACTCACGCTGGATAGCCTC
DNA 2: GAGGCTATCCAGCGTGAGTCTCTCC
LPG10168
  activity: 0.61 % indels

B4: SGN003667 ; B2M target SGN003667 (ssRNA ; dsDNA)
RNA: AAGAGAGAGUAGCGCGAGCACAGCUGUCAUAGUUCCAUUAAAGCCAUUAAAGAAUGGCUUUGAUGUUUCUAUGAUAAGGGUUUCGGCCCGUGGCGUUGGGGAUCGCCUGCCCAUUUCAAUGGGCUUCUCCCCAUUU
DNA 1: AAGAGAGAGTAGCGCGAGCACAGCT
DNA 2: AGCTGTGCTCGCGCTACTCTCTCTT
LPG10167
  activity: 1.16 % indels

B5: SGN005374 ; SGN005374 target (ssRNA ; dsDNA)
RNA: AGUAGCGCGAGCACAGCUAAGGCCAGCCAUAAUUCCUCCAAAGGGAGUUAUUAUGGUAAGGCAUUAUGCCGUGGCGUUGGGGAUCGCCUACAUCCGAUUAGAUCGGAUUCUCCCUAAAAAUGACUAACUUUGUUUAGUCAUUUUUUU
DNA 1: AGTAGCGCGAGCACAGCTAAGGCCA
DNA 2: TGGCCTTAGCTGTGCTCGCGCTACT
LPG10204
  activity: 37.5 % indels

B6: SGN005374 ; SGN005374 target (LPG10208) (ssRNA ; dsDNA)
RNA: B5 RNA
DNA 1: AGTAGCGCGAGCACAGCTAAGGCCA
DNA 2: TGGCCTTAGCTGTGCTCGCGCTACT
LPG10208
  activity: 47.2 % indels

B7: SGN003669 ; B2M target SGN003669 (ssRNA ; dsDNA)
RNA: UGACAGCAUUCGGGCCGAGAUGUCUGUCAUAGUUCCAUUAAAGCCAUUAAAGAAUGGCUUUGAUGUUUCUAUGAUAAGGGUUUCGGCCCGUGGCGUUGGGGAUCGCCUGCCCAUUUCAAUGGGCUUCUCCCCAUUU
DNA 1: TGACAGCATTCGGGCCGAGATGTCT
DNA 2: AGACATCTCGGCCCGAATGCTGTCA
LPG10168
  activity: 3.68 % indels
